Test results as given in IntAct's records for PubMed 11779178.

B1: Merlin (Homo sapiens), P35240-3 (parent)
chain: MAGAIASRMSFSSLKRKQPKTFTVRIVTMDAEMEFNCEMKWKGKDLFDLVCRTLGLRETWFFGLQYTIKDTVAWLKMDKKVLDHDVSKEEPVTFHFLAKFYPENAEEELVQEITQHLFFLQVKKQILDEKIYCPPEASVLLASYAVQAKYGDYDPSVHKRGFLAQEELLPKRVINLYQMTPEMWEERITAWYAEHRGRARDEAEMEYLKIAQDLEMYGVNYFAIRNKKGTELLLGVDALGLHIYDPENRLTPKISFPWNEIRNISYSDKEFTIKPLDKKIDVFKFNSSKLRVNKLILQLCIGNHDLFMRRRKADSLEVQQMKAQAREEKARKQMERQRLAREKQMREEAERTRDELERRLLQMKEEATMANEALMRSEETADLLAEKAQITEEEAKLLAQKAAEAEQEMQRIKATAIRTEEEKRLMEQKVLEAEVLALKMAEESERRAKEADQLKQDLQEAREAERRAKQKLLEIATKPTYPPMNPIPAPLPPDIPSFNLIGDSLSFDFKDTDMKRLSMEIEKEKVEYMEKSKHLQEQLNELKTEIEALKLKERETALDILHNENSDRGGSSKHNTIKKPQAQGRRPICI

Variants of: B1
Settings: with eif3c_human EIF3C

| Variant | effect of a mutation on the interaction |
| --- | --- |
| MAGAIASRMSFSSLKRKQPKTFTVRIVTMDAEMEFNCEMKCKGKDLFDLVCRTLGLRETWFFGLQYTIKDTVAWLKMDKKVLDHDVSKEEPVTFHFLAKFYPENAEEELVQEITQHLFFLQVKKQILDEKIYCPPEASVLLASYAVQAKYGDYDPSVHKRGFLAQEELLPKRVINLYQMTPEMWEERITAWYAEHRGRARDEAEMEYLKIAQDLEMYGVNYFAIRNKKGTELLLGVDALGLHIYDPENRLTPKISFPWNEIRNISYSDKEFTIKPLDKKIDVFKFNSSKLRVNKLILQLCIGNHDLFMRRRKADSLEVQQMKAQAREEKARKQMERQRLAREKQMREEAERTRDELERRLLQMKEEATMANEALMRSEETADLLAEKAQITEEEAKLLAQKAAEAEQEMQRIKATAIRTEEEKRLMEQKVLEAEVLALKMAEESERRAKEADQLKQDLQEAREAERRAKQKLLEIATKPTYPPMNPIPAPLPPDIPSFNLIGDSLSFDFKDTDMKRLSMEIEKEKVEYMEKSKHLQEQLNELKTEIEALKLKERETALDILHNENSDRGGSSKHNTIKKPQAQGRRPICI [W41C] | with no effect |

Variants of: B1
Settings: with HGS

| Variant | effect of a mutation on the interaction |
| --- | --- |
| MAGAIASRMSFSSLKRKQPKTFTVRIVTMDAEMEFNCEMKCKGKDLFDLVCRTLGLRETWFFGLQYTIKDTVAWLKMDKKVLDHDVSKEEPVTFHFLAKFYPENAEEELVQEITQHLFFLQVKKQILDEKIYCPPEASVLLASYAVQAKYGDYDPSVHKRGFLAQEELLPKRVINLYQMTPEMWEERITAWYAEHRGRARDEAEMEYLKIAQDLEMYGVNYFAIRNKKGTELLLGVDALGLHIYDPENRLTPKISFPWNEIRNISYSDKEFTIKPLDKKIDVFKFNSSKLRVNKLILQLCIGNHDLFMRRRKADSLEVQQMKAQAREEKARKQMERQRLAREKQMREEAERTRDELERRLLQMKEEATMANEALMRSEETADLLAEKAQITEEEAKLLAQKAAEAEQEMQRIKATAIRTEEEKRLMEQKVLEAEVLALKMAEESERRAKEADQLKQDLQEAREAERRAKQKLLEIATKPTYPPMNPIPAPLPPDIPSFNLIGDSLSFDFKDTDMKRLSMEIEKEKVEYMEKSKHLQEQLNELKTEIEALKLKERETALDILHNENSDRGGSSKHNTIKKPQAQGRRPICI [W41C] | with no effect |

Variants of: B1
Settings: with HGS
Remark: another data set of the same source

| Variant | effect of a mutation on the interaction |
| --- | --- |
| MAGAIASRMSFSSLKRKQPKTFTVRIVTMDAEMEFNCEMKCKGKDLFDLVCRTLGLRETWFFGLQYTIKDTVAWLKMDKKVLDHDVSKEEPVTFHFLAKFYPENAEEELVQEITQHLFFLQVKKQILDEKIYCPPEASVLLASYAVQAKYGDYDPSVHKRGFLAQEELLPKRVINLYQMTPEMWEERITAWYAEHRGRARDEAEMEYLKIAQDLEMYGVNYFAIRNKKGTELLLGVDALGLHIYDPENRLTPKISFPWNEIRNISYSDKEFTIKPLDKKIDVFKFNSSKLRVNKLILQLCIGNHDLFMRRRKADSLEVQQMKAQAREEKARKQMERQRLAREKQMREEAERTRDELERRLLQMKEEATMANEALMRSEETADLLAEKAQITEEEAKLLAQKAAEAEQEMQRIKATAIRTEEEKRLMEQKVLEAEVLALKMAEESERRAKEADQLKQDLQEAREAERRAKQKLLEIATKPTYPPMNPIPAPLPPDIPSFNLIGDSLSFDFKDTDMKRLSMEIEKEKVEYMEKSKHLQEQLNELKTEIEALKLKERETALDILHNENSDRGGSSKHNTIKKPQAQGRRPICI [W41C] | with no effect |

Variants of: B1
Settings: with NF2, P35240-1

| Variant | effect of a mutation on the interaction |
| --- | --- |
| MAGAIASRMSFSSLKRKQPKTFTVRIVTMDAEMEFNCEMKCKGKDLFDLVCRTLGLRETWFFGLQYTIKDTVAWLKMDKKVLDHDVSKEEPVTFHFLAKFYPENAEEELVQEITQHLFFLQVKKQILDEKIYCPPEASVLLASYAVQAKYGDYDPSVHKRGFLAQEELLPKRVINLYQMTPEMWEERITAWYAEHRGRARDEAEMEYLKIAQDLEMYGVNYFAIRNKKGTELLLGVDALGLHIYDPENRLTPKISFPWNEIRNISYSDKEFTIKPLDKKIDVFKFNSSKLRVNKLILQLCIGNHDLFMRRRKADSLEVQQMKAQAREEKARKQMERQRLAREKQMREEAERTRDELERRLLQMKEEATMANEALMRSEETADLLAEKAQITEEEAKLLAQKAAEAEQEMQRIKATAIRTEEEKRLMEQKVLEAEVLALKMAEESERRAKEADQLKQDLQEAREAERRAKQKLLEIATKPTYPPMNPIPAPLPPDIPSFNLIGDSLSFDFKDTDMKRLSMEIEKEKVEYMEKSKHLQEQLNELKTEIEALKLKERETALDILHNENSDRGGSSKHNTIKKPQAQGRRPICI [W41C] | decreasing interaction strength |

Variants of: B1
Settings: with sptb2_human SPTBN1, Q01082
sptb2_human SPTBN1, Q01082, sequence (Q01082 whole entry): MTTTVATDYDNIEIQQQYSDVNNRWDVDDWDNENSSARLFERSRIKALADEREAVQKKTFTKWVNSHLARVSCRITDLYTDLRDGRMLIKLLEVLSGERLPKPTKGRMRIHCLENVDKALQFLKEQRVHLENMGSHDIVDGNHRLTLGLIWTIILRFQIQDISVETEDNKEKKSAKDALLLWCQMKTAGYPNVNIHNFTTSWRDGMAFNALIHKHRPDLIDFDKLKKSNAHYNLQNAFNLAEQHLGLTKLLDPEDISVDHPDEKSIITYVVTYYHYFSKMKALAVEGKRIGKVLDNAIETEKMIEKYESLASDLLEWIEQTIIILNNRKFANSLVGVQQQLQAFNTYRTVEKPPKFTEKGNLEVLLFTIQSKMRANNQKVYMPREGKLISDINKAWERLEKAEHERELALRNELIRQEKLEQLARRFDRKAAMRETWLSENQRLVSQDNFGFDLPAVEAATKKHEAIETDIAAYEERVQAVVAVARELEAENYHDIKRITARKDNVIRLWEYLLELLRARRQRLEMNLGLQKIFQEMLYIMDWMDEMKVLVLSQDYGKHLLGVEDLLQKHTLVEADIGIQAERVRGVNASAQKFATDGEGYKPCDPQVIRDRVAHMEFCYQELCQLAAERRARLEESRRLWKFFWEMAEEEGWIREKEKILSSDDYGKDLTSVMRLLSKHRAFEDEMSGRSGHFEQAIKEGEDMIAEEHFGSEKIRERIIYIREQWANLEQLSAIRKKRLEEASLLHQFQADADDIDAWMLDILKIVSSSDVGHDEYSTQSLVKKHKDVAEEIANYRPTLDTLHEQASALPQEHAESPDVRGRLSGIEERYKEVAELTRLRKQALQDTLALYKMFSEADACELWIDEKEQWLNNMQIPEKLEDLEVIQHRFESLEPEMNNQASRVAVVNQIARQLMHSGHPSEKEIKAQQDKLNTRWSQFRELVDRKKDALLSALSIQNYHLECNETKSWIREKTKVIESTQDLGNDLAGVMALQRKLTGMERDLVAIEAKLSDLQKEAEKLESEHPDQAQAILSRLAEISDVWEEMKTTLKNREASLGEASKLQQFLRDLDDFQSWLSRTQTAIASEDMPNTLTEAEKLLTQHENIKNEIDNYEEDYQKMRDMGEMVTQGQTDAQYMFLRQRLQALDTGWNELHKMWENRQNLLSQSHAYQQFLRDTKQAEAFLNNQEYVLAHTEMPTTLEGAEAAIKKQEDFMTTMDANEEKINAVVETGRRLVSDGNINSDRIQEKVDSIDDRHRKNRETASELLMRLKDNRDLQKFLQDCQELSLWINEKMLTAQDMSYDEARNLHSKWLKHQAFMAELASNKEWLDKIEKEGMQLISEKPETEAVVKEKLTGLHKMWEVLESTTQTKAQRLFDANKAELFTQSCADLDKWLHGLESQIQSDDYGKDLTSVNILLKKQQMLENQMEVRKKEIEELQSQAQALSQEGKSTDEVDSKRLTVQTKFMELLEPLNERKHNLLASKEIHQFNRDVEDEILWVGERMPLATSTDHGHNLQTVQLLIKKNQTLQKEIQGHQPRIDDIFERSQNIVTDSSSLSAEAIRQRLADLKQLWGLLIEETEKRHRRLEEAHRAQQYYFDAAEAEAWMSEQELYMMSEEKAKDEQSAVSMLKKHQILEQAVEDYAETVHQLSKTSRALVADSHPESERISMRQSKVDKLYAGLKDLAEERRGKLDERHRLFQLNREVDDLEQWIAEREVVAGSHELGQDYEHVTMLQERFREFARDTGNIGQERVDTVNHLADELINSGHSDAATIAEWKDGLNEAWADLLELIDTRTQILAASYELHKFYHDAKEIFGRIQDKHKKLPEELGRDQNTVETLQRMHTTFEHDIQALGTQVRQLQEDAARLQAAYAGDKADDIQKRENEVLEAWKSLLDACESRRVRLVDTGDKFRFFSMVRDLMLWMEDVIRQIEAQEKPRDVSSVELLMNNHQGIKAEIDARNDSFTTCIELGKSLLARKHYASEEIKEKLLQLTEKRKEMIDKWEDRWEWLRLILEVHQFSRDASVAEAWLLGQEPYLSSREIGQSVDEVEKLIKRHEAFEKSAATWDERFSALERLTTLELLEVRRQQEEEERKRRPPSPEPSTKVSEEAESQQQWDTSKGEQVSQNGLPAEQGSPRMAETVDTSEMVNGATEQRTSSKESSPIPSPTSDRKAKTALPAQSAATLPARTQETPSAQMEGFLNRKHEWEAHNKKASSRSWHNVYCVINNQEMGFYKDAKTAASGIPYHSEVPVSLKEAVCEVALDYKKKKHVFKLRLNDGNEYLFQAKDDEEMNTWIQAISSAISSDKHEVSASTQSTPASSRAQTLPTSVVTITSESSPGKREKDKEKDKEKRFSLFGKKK

| Variant | effect of a mutation on the interaction |
| --- | --- |
| MAGAIASRMSFSSLKRKQPKTFTVRIVTMDAEMEFNCEMKCKGKDLFDLVCRTLGLRETWFFGLQYTIKDTVAWLKMDKKVLDHDVSKEEPVTFHFLAKFYPENAEEELVQEITQHLFFLQVKKQILDEKIYCPPEASVLLASYAVQAKYGDYDPSVHKRGFLAQEELLPKRVINLYQMTPEMWEERITAWYAEHRGRARDEAEMEYLKIAQDLEMYGVNYFAIRNKKGTELLLGVDALGLHIYDPENRLTPKISFPWNEIRNISYSDKEFTIKPLDKKIDVFKFNSSKLRVNKLILQLCIGNHDLFMRRRKADSLEVQQMKAQAREEKARKQMERQRLAREKQMREEAERTRDELERRLLQMKEEATMANEALMRSEETADLLAEKAQITEEEAKLLAQKAAEAEQEMQRIKATAIRTEEEKRLMEQKVLEAEVLALKMAEESERRAKEADQLKQDLQEAREAERRAKQKLLEIATKPTYPPMNPIPAPLPPDIPSFNLIGDSLSFDFKDTDMKRLSMEIEKEKVEYMEKSKHLQEQLNELKTEIEALKLKERETALDILHNENSDRGGSSKHNTIKKPQAQGRRPICI [W41C] | increasing interaction strength |
